Measurements: patent publication US20080260750A1 (MCGILL UNIVERSITY, published 2008)

B2: ACC-2D6.3 acetylcholine-gated chloride channel subunit (receptor)
chain: DYSELVHSAELVSSSSYIHHKTNKKPDNCTRDTDIIDRLLNGTGYNKFRIPQEEGMTVVVEIWIQAITSIDELTNDFDMDIYITETWLDPALNFQTMTPCKGNLSLNHQVLDRLWTPNSCFINSKVAQIHNSPFRSVFLMLFPNGTVMVNYRVRVKGPCSLDLSNFPLDLQKCSLIYESFNYNRQEVEMRWSDAEHPVFNLSKIMLPDFDLFEIQTERRQEPYPAGMWDELHVTIIFERRFIWYFMQAYLPTYLTIFISWISFSLGSRAIPARTMLGVNSLLAIVFSFGNIMRNLPRVSYIKGIDVWMLVSMTFIFCSLLELAIVGFMVRDETVAKKKQQKKISGNISREESPHGIISERRFMFPPGCSESSKSLSSCTSGWTPERIDSISSVMFPFSFFVFNIIYWFYYIHRKEIIKQNLINRVDG
notes: Expressed from cRNA in Xenopus oocytes; also called ACC-2D6.3 receptor; ACC-2D6.3 channel

Legend:
[1] = target: T1, ACC-3D10.5 acetylcholine-gated chloride channel subunit (C. elegans, UniProt G5EDN0 20-517); assay: co-expression in Xenopus oocytes, two-electrode voltage clamp (inferred from changed desensitization, EC50 and Hill coefficient for ACh)
T1 sequence: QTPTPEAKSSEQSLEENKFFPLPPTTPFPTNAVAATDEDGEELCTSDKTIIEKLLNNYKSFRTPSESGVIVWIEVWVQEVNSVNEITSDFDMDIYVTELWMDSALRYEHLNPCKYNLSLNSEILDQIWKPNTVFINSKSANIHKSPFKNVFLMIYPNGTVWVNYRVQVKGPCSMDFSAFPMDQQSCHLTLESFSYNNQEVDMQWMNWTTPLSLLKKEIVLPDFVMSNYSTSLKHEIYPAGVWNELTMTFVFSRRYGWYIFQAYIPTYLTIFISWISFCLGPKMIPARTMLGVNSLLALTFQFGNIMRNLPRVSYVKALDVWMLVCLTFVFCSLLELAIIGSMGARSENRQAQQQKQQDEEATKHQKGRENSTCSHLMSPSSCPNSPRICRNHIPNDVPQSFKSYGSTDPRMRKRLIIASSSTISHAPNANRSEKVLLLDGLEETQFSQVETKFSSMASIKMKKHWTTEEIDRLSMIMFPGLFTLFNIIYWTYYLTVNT

[2] = target: T1, ACC-3D10.5 acetylcholine-gated chloride …; assay: co-expression in Xenopus oocytes, two-electrode voltage clamp (inferred from loss of the ACh response)
[3] = target: B2; assay: as above

B1: ACC-1G6.4 acetylcholine-gated chloride channel subunit (receptor)
chain: QSLDNCANDTEIINALLKDSYNKHYIPSHPTHVRVDMWVQEVTSVSELTQDFEIDLYINEFWEDPALVYEDMNPCKRNISFDDKVLQRLWLPNTCFINSKSAAIHESPFKNVFLMVFSNGTLWTNYRMKLTGPCDMKLKRFPFDKQKCYLTFESFNYNTGEVRMQWNQPYPVILLKRIELPDFKLVNFSVIAVEQMYPAGWWDELTVAFVFERRYGWYVLQGYIPTMVTIVISWISFYLGPRAIPARTMLGVNSLLAMTFQFGNIIRNLPRVSYVKAIDVWMLSGMLFIFLSLLELAVVGFMSRNEGLPPKVKKRKRQEDDDEGFSWKSMQTSPHLELRQFWVDKRVNSLRNDSAVPPVEDYAPMELEQPYQNITKRREKRKWMSGLRKKWRAMRELRPETVDFYSAIFFPTAYMLFNISYWSFYLTSLSEYFDEDVNIDQP
notes: Expressed from cRNA in Xenopus oocytes; also called ACC-1G6.4 receptor; ACC-1G6.4 channel
B1: binds [1].

B2: binds [2].

B3: ACC-4E9.9 acetylcholine-gated chloride channel subunit (receptor)
chain: LLRSLEDDSNECMFNCPKRARNVSVPHTEKTCMGDDAIIAQILDGYNKLDLPGGGHVVVSIEIWVQEVSKIIEITSEFELDIYVTERWTDPSLAYSHLNPCKSNMSVDGATILNKIWNPHACFVNSKLANIHESPFKNIFLQIYSNGSIWHNYRIKLTGPCSSTLRTFPIDQQRCMLFYESFTHNTDQVKMEWITTVPPITILKGNITLPDYVLVDFSSSSELRLYPPGIFNELIATFTFQRLYGFYILQVYVPAYISVFISWVSFTLGAEQIPSRTTVGVNSLLALTFQFGAVVNNLPKTSDVKAIDVWILSSMAFIFASLIELAVVGYLSRDGQHGSIKCRCSWLCMNCKDWTALKIDQMSSIVFPVSFLAFNIWYWFIFLGKLLVRTI
B3: binds [3].
